Here are results for 26 molecules from patent publication EP4671273A1 (Anaveon AG, dated 2025).

Where a chain is given by its changes, count along the chain named.

Usually Kd stands for the concentration at which binding is half-saturated. One may read the koff as the rate constant with which the complex falls apart. In general, kon refers to the second-order rate constant of association. The low end stands for slow association, the high end for fast association.

First the molecules themselves.
B1: XVT458-z2-m6 (antibody, human IgG1, V domains shown)
VH: VQLVQSGAEVKKPGASVKVSCKASGYTFTNFYIHWVRQAPGQGLEWMGSIYPNYGITAYNQKFKDRVTMTVDTSTSTAYMELRSLRSDDTAVYYCARGYSYAMDYWGQGTTVTVSS
VL: DIQMTQSPSSVSASVGDRVTITCSASQGISGDLNWYQQKPGKAPKLLIYHTSQLHSDVPSRFSGSGSGTDFTLTISSLQPEDFATYYCQGYSKDLLTFGGGTKLEIK
notes: human IgG1; also called anti-PD-1 antibody clone XVT458-z2-m6
B2: BBJ602 (antibody, human IgG1, V domains shown)
VH: B1 VH with A102G
VL: B1 VL
notes: human IgG1
B3: OKM590 (antibody, human IgG1, V domains shown)
VH: B1 VH with Y105V
VL: B1 VL
notes: human IgG1
B4: WAZ460 (antibody, human IgG1, V domains shown)
VH: B1 VH
VL: B1 VL with S24R
notes: human IgG1
B5: NRT742 (antibody, human IgG1, V domains shown)
VH: B1 VH
VL: B1 VL with T51A
notes: human IgG1
B6: JPK663 (antibody, human IgG1, V domains shown)
VH: B1 VH
VL: B1 VL with I21A
notes: human IgG1
B7: ZTD928 (antibody, human IgG1, V domains shown)
VH: B1 VH
VL: B1 VL with L95T
notes: human IgG1
B8: ACH836 (antibody, human IgG1, V domains shown)
VH: B1 VH
VL: B1 VL with I29A
notes: human IgG1
B9: RZL961 (antibody, human IgG1, V domains shown)
VH: B1 VH with N53Q
VL: B1 VL
notes: human IgG1
B10: DKR699 (antibody, human IgG1, V domains shown)
VH: B1 VH with I56D
VL: B1 VL
notes: human IgG1
B11: QGA408 (antibody, human IgG1, V domains shown)
VH: B1 VH with Y59F
VL: B1 VL
notes: human IgG1
B12: YCF391 (antibody, human IgG1, V domains shown)
VH: B1 VH with I50T
VL: B1 VL
notes: human IgG1
B13: ICW519 (antibody, human IgG1, V domains shown)
VH: B1 VH with K64Q
VL: B1 VL
notes: human IgG1
B14: PEV057 (antibody, human IgG1, V domains shown)
VH: B1 VH with V92T
VL: B1 VL
notes: human IgG1
B15: KOB135 (antibody, human IgG1, V domains shown)
VH: B1 VH
VL: B1 VL with L54Q
notes: human IgG1
B16: MEK904 Fab (Fab, V domains shown)
VH: QVQLQESGPGLVKPSETLSLTCTVSGGSISSDYWGWIRQPPGKGLEWIGYISYRGSTNYNPSLKSRVTISVDTSRNQFSLKLSSVTAADTAVYYCARSAGVADFDFWGQGTLVTVSS
VL: DIQLTQSPSSVSASVGDRVTITCRASQGISSWLAWYQHKPGKAPKLLIYVASSLQSGVPSRFSGSGSGTDFTLTISSLQPEDFATYYCQQASSFPLTFGGGTKVEIK
notes: Fab
B17: OWS965 Fab (Fab, V domains shown)
VH: B16 VH with R54S, F106A
VL: B16 VL
notes: Fab
B18: EJT070 Fab (Fab, V domains shown)
VH: B16 VH with R54S
VL: B16 VL
notes: Fab
B19: RPD212 Fab (Fab, V domains shown)
VH: B16 VH with R54S, A102T, F106A
VL: B16 VL
notes: Fab
B20: PAI969 Fab (Fab, V domains shown)
VH: B16 VH with Y53S, R54S, F106A
VL: B16 VL
notes: Fab
B21: IOO459 Fab (Fab, V domains shown)
VH: B16 VH with Y53S, S65R
VL: B16 VL with L4M, S92N, F94A
notes: Fab
B22: VPH777 Fab (Fab, V domains shown)
VH: B16 VH with Y53S, R54S
VL: B16 VL
notes: Fab
B23: CLJ397 Fab (Fab, V domains shown)
VH: B16 VH with F106A
VL: B16 VL
notes: Fab
B24: JSQ278 Fab (Fab, V domains shown)
VH: B16 VH with A102T, F106A
VL: B16 VL
notes: Fab
B25: IFQ920 Fab (Fab, V domains shown)
VH: B16 VH with Y33F, Y53S, S65R
VL: B16 VL with L4M, S92N, F94A
notes: Fab
B26: UER756 Fab (Fab, V domains shown)
VH: B16 VH with Y53S, R54S, A102T, F106A
VL: B16 VL
notes: Fab

T1 sequence (Q15116 25-167 limits assumed): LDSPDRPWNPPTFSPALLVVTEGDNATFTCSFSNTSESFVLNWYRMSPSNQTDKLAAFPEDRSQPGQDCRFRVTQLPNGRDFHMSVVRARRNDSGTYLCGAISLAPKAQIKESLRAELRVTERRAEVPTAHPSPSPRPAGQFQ

One assay addresses T1, human PD-1 (#PD1-H82E4, AcroBiosystems) (human, UniProt Q15116 25-167).
T1 construct: bought
Briefly: SPR, PD-1 on captured IgG1. (Surface plasmon resonance follows binding to a sensor surface in real time, without labels.)
Consider B1, for which binding was characterised by a dissociation constant (Kd) of 0.522 nM, the off-rate constant (koff) came out at 0.000174 s⁻¹ and the on-rate constant (kon) is 333000 M⁻¹ s⁻¹.

B2: the affinity, expressed as Kd, was 18.1 nM; the koff was 0.0278 s⁻¹; the kon came out at 1.54e+06 M⁻¹ s⁻¹.

The molecule B3 showed a Kd of 0.955 nM, a dissociation rate constant (koff) of 0.00039 s⁻¹ and a kon of 409000 M⁻¹ s⁻¹.

In turn, B4 returned a Kd of 0.515 nM, an off-rate (koff) of 0.000202 s⁻¹ and an on-rate (kon) of 393000 M⁻¹ s⁻¹.

B5: the affinity, expressed as Kd, was 0.955 nM; the off-rate constant (koff) worked out at 0.000406 s⁻¹; the kon is 426000 M⁻¹ s⁻¹.

B6 registered a Kd of 0.429 nM, a dissociation rate constant (koff) of 0.000144 s⁻¹ and a kon of 336000 M⁻¹ s⁻¹.

For B7, the dissociation constant Kd is 0.801 nM, the off-rate (koff) came out at 0.00028 s⁻¹ and the on-rate constant (kon) was found to be 349000 M⁻¹ s⁻¹.

With B8, the equilibrium dissociation constant (Kd) was found to be 0.342 nM, the koff was determined as 0.000117 s⁻¹ and the kon is 344000 M⁻¹ s⁻¹.

Turning to B9, the Kd is 1.21 nM, the dissociation rate constant (koff) is 0.000536 s⁻¹ and the kon was found to be 444000 M⁻¹ s⁻¹.

B10 yielded an equilibrium dissociation constant (Kd) of 0.606 nM, an off-rate constant (koff) of 0.000121 s⁻¹ and an association rate constant (kon) of 200000 M⁻¹ s⁻¹.

The molecule B11 had a dissociation constant (Kd) of 0.48 nM, a dissociation rate constant (koff) of 0.000208 s⁻¹ and a kon of 434000 M⁻¹ s⁻¹.

In the case of B12, the Kd turned out to be 0.808 nM, the dissociation rate constant (koff) was 0.000336 s⁻¹ and the kon was found to be 416000 M⁻¹ s⁻¹.

As to B13, the Kd came to 0.511 nM, the koff came out at 0.000187 s⁻¹ and the on-rate (kon) is 365000 M⁻¹ s⁻¹.

In the case of B14, binding was put at a Kd of 0.521 nM, the off-rate constant (koff) stood at 0.000189 s⁻¹ and the association rate constant (kon) amounted to 363000 M⁻¹ s⁻¹.

Molecule B15 yielded an equilibrium dissociation constant (Kd) of 0.506 nM, an off-rate constant (koff) of 0.000166 s⁻¹ and a kon of 329000 M⁻¹ s⁻¹.

In the next assay the target is T2, cynomolgus PD-1 (#PD1-C52H5, AcroBiosystems) (cynomolgus monkey, UniProt B0LAJ3 25-170).
T2 construct: bought; also called cynomolgus monkey PD-1; not shown: the vendor's tag on the recombinant protein (AcroBiosystems #PD1-C52H5)
T2 sequence (B0LAJ3 entry or part of it limits assumed, form in doubt): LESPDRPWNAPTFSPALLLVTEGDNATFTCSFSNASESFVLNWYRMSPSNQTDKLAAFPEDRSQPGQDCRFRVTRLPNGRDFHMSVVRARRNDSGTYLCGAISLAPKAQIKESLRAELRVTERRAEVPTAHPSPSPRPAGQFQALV
Briefly: SPR, PD-1 on captured IgG1.
The molecule B1 displayed a Kd of 0.306 nM, an off-rate constant (koff) of 0.000153 s⁻¹ and a kon of 499000 M⁻¹ s⁻¹.

In turn, B2 came in with a Kd of 8.53 nM, an off-rate constant (koff) of 3.15 s⁻¹ and an association rate constant (kon) of 3.69e+08 M⁻¹ s⁻¹.

Consider B3, for which binding was characterised by a dissociation constant (Kd) of 0.627 nM, the off-rate constant (koff) worked out at 0.000345 s⁻¹ and the on-rate constant (kon) was 551000 M⁻¹ s⁻¹.

B4 showed a Kd of 0.331 nM, a koff of 0.00016 s⁻¹ and a kon of 485000 M⁻¹ s⁻¹.

B5 registered a Kd of 0.541 nM, a koff of 0.000297 s⁻¹ and an on-rate (kon) of 549000 M⁻¹ s⁻¹.

In turn, B6 had a Kd of 0.246 nM, an off-rate constant (koff) of 0.000124 s⁻¹ and a kon of 504000 M⁻¹ s⁻¹.

On to B7, for which the Kd came out at 0.502 nM, the off-rate constant (koff) was found to be 0.000243 s⁻¹ and the on-rate constant (kon) was found to be 483000 M⁻¹ s⁻¹.

Regarding B8, binding was characterised by a dissociation constant (Kd) of 0.205 nM, the off-rate (koff) stood at 0.000101 s⁻¹ and the kon turned out to be 493000 M⁻¹ s⁻¹.

B9 gave a Kd of 0.785 nM, a koff of 0.000436 s⁻¹ and a kon of 555000 M⁻¹ s⁻¹.

On to B10, for which the Kd stood at 0.86 nM, the off-rate constant (koff) amounted to 0.000203 s⁻¹ and the on-rate (kon) was determined as 236000 M⁻¹ s⁻¹.

As for B11, binding was put at a Kd of 0.328 nM, the koff is 0.000182 s⁻¹ and the association rate constant (kon) is 555000 M⁻¹ s⁻¹.

Molecule B12 had a Kd of 0.664 nM, a koff of 0.00026 s⁻¹ and a kon of 391000 M⁻¹ s⁻¹.

In the case of B13, the dissociation constant Kd was 0.296 nM, the off-rate (koff) is 0.000176 s⁻¹ and the kon worked out at 592000 M⁻¹ s⁻¹.

On to B14, for which binding was put at a Kd of 0.327 nM, the koff was 0.00016 s⁻¹ and the kon came out at 489000 M⁻¹ s⁻¹.

B15 showed a Kd of 0.362 nM, a dissociation rate constant (koff) of 0.000179 s⁻¹ and an association rate constant (kon) of 495000 M⁻¹ s⁻¹.

The target in a further assay is T3, rhIL-21-His (AB235875-1001, Abcam) (human, UniProt Q9HBE4 30-162).
T3 construct: bought; not shown: His tag, length and position not described
T3 sequence (Q9HBE4 30-162 limits assumed): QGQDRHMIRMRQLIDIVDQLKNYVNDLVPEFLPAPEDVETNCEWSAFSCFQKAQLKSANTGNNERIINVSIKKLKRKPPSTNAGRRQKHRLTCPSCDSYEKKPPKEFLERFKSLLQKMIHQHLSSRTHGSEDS
Kind of assay: SPR, Fab on captured rhIL-21-His.
Molecule B16 came in with a Kd of 0.69 nM, a koff of 0.00015 s⁻¹ and an on-rate constant (kon) of 210000 M⁻¹ s⁻¹.

B17 had a Kd of 2 nM, an off-rate (koff) of 0.00017 s⁻¹ and a kon of 87000 M⁻¹ s⁻¹.

Regarding B18, binding was characterised by a dissociation constant (Kd) of 0.82 nM, the koff was determined as 0.0002 s⁻¹ and the association rate constant (kon) was found to be 250000 M⁻¹ s⁻¹.

B19 returned a dissociation constant Kd of 1.1 nM, a koff of 0.00015 s⁻¹ and an on-rate constant (kon) of 130000 M⁻¹ s⁻¹.

As for B20, the dissociation constant (Kd) was determined as 0.98 nM, the off-rate constant (koff) is 0.00014 s⁻¹ and the association rate constant (kon) was determined as 140000 M⁻¹ s⁻¹.

Regarding B21, binding was put at a Kd of 15.6 nM, the koff was determined as 0.0222 s⁻¹ and the kon turned out to be 1.42e+06 M⁻¹ s⁻¹.

Consider B22, for which the equilibrium dissociation constant (Kd) amounted to 0.73 nM, the koff was found to be 0.0001 s⁻¹ and the kon was found to be 140000 M⁻¹ s⁻¹.

Consider B23, for which the dissociation constant (Kd) amounted to 0.55 nM, the koff stood at 0.00015 s⁻¹ and the kon amounted to 270000 M⁻¹ s⁻¹.

B24 yielded a Kd of 0.56 nM, a koff of 0.00015 s⁻¹ and a kon of 270000 M⁻¹ s⁻¹.

Take B25: binding was characterised by a dissociation constant (Kd) of 8.28 nM, the koff was 0.00233 s⁻¹ and the on-rate constant (kon) was found to be 281000 M⁻¹ s⁻¹.

B26: the Kd is 0.81 nM, the koff was determined as 0.00011 s⁻¹ and the kon was 140000 M⁻¹ s⁻¹.
